The values that follow come from patent US11905559B2, “Materials and methods for controlling gene expression” (priority 2016, dated 2024).

Data set [1] is described as follows: Isothermal titration calorimetry (ITC). It counts as binding. On the procedure:
For ITC experiments, wild-type G-aptamer and the mutant RNAs were synthesized by in vitro transcription of the DNA template and purified by denaturing polyacrylamide gel electrophoresis (PAGE). The ligand guanine was introduced in the syringe, while the RNA into the sample cell at a final concentration of 10 μM and 1 μM respectively. The concentrations were determined by absorbance reading using ε260=12010 M^−1 cm^−1 (guanine) and ε260=711400 M^−1 cm^−1 (RNA). The buffer in the syringe and the sample cell contained 50 mM K^+ Hepes (pH 7.5), 100 mM KCl, and 10 mM MgCl2. Binding reactions were performed at 30° C. on a MicroCal iTC200 instrument (Malvern) with a reference power of 6 μcal/sec, an initial delay of 60 secs and a stirring speed of 750 rpm. Guanine was titrated into the sample cell in 16 injections (2.5 μl each). The injection rate was 0.5 μl/sec and the spacing between the injections was maintained at 120 sec. Data was baseline corrected and fitted to a single-site binding model to obtain association constant (KA), stoichiometry (n) and binding enthalpy, ΔH. The dissociation constant (KD) and the binding free energy, ΔG was obtained from the fitted parameters using the following relations. All data analysis was performed using the Origin ITC software.
The ITC results are reported as mean±standard deviation from three independent experiments.
Background: In ITC the heat of successive injections is recorded.

For a further data set, the system named is lac Z expression. As to the kind of experiment: β-galactosidase reporter assay (xpt-lacZ fusion). The class given is cell-based, B. subtilis. The settings on record: presence and absence of guanine; B. subtilis. On the procedure: Kissing-loop mutants were analyzed to determine whether they can exert riboswitch activities by controlling transcription termination, given that the guanine binding was retained in all of them. To test this, a β-galactosidase reporter assay was performed in B.subtilis. […] The gene expression is repressed in wild-type due to the transcription termination in the presence of guanine. […] The fast kissing dynamics between the L2-L3 probably have a stabilizing effect on P1, and therefore an increase in the transcription termination is observed. […] This underscores that the L2-L3 dynamics are directly involved in the P1-helix formation, which affects the terminator hairpin downstream that ultimately results in an alteration of the riboswitch activities.
To assess if the aptamer mutants can exert a transcriptional control similar to the previously reported wild-type xpt-pbuX riboswitch, a xpt-lacZ fusion was constructed as described by Mandal et al., “Riboswitches control fundamental biochemical pathways in Bacillus subtilis and other bacteria”. Cell 113, 577-586 (2003). Briefly, nts −121 to +197 relative to the transcriptional start site of the xpt-pbuX operon from B. subtilis 1A1 (BGSC, Columbus, Ohio) was PCR amplified and cloned upstream of the lacZ reporter gene into pDG1661 vector. After confirming the cloned sequence, plasmid variants were integrated into the amyE locus of the 1A1 strain. Transformants were selected for double markers, specifically for chloramphenicol (5 μg/ml) resistance and sensitivity to spectinomycin (100 μg/ml). Selected B. subtilis colonies were subsequently grown in minimal media (25 g/L K2HPO4·3H2O, 6 g/L KH2PO4, 1 g/L sodium citrate, 0.2 g/l MgSO4·7H2O, 2 g/L Na2SO4, 50 μM FeCl3, 2 μM MnCl2, 50 μg/ml L-Tryptophan, 50 μg/ml L-Lysine, 50 μg/ml L-Methionine, 0.4 g/100 ml glucose, and 0.2 g/100 ml glutamate) at 37° C. with vigorous shaking. Purines were added at a final concentration of 0.1 mg/ml. Cells were harvested at mid-logarithmic growth phase (A600˜0.1-0.4), and resuspended in the above buffer for the reporter assay. The color development was recorded by measuring absorbance, A420 at the end of the reaction with appropriate controls. Data is represented in Miller Units calculated from the following relation:
[formula] where Δt is the total duration taken in the substrate cleavage by […], measured as absorbance, A420. The Miller Units shown in FIG. 4A represents mean±standard deviation from 3 independent experiments, wherein each independent experiment was performed in duplicate.

Data set [2] can be described thus: Constant-force (CF) single-molecule optical tweezers folding assay of guanine-aptamer RNAs in guanine buffer. It counts as physicochemical. Particulars: for Folding rate kf / Transition distance ΔX / Unfolding rate ku / ΔG (0): 200 nM G; for ΔG (0): zero force. From the text: The aptamer folding was monitored in real time using a constant-force (CF) assay. Equilibrium sampling techniques provide unprecedented insights into the rare events in the course of folding that are otherwise difficult to identify. The technique also allows for determination of the kinetic rates that has not been fully investigated in the guanine riboswitch. The relative dynamics of the helices have been investigated in ensemble and smFRET experiments, which indicated a non-dynamic P1-P3, upon which the P2 helix switches conformations. As shown in FIG. 6A (left panel), the RNA oscillated between the linear and the hairpin conformations (E↔D↔C) at 13 pN. The distances ΔXED=7.1±0.4 nm and ΔXDC=7.9±0.4 nm correspond to the folding of a 17±1 nt (P2) and 19±1 nt (P3) respectively (FIGS. 7A-B). The conversion of distances to nucleotides in CF assay are described in Table 2.
A miniaturized dual beam optical tweezers instrument was constructed with a sampling rate of 0.4, 4 and 40 kHz. Typically, in the tweezers set up (FIGS. 2A-E), a single-molecule of RNA is held between two beads via ˜550 nucleotide (nt) long Handles A and B. Preparation of Handles and the RNA is described in the section above. The streptavidin coated polystyrene bead (diameter 1.5-1.9 μm, Spherotech Inc.) is fixed on a micropipette via suction, and the anti-digoxigenin coated bead (diameter 4.0-4.9 μm, Spherotech Inc.) is held in the dual counter-propagating laser beam. The trap stiffness, K is measured at 0.04-0.06 pN/nm from the power spectrum analysis of the Brownian motion of the trapped bead. For power spectrum analysis, a polystyrene bead with diameter ˜4.6 μm is trapped in the counter-propagating laser beam in aqueous buffer with a fixed trap position. […] The average from 10 beads yielded K˜0.049±0.0008 pN/nm, and the stoke's drag coefficient, y=0.0364±0.0002 pN. s/μm. […] However, the autocorrelation time (τ0) defined as the τ1=1/2πfc as described by Zoldak et al., “Ultrafast folding kinetics and cooperativity of villin headpiece in single-molecule force spectroscopy”. Proc. Natl. Acad. Sci. U.S.A 110, 18156 (2013) sets the detection limit for the observable kinetics, which is different from the sampling frequencies. […] The ACF for the time series of force signal, Fi, with sampling rate δ and N data points, is calculated as,
In a constant-force (CF) experiment, the RNA is held at a preset force through feedback control. The preset force typically fluctuated around the mean with a standard deviation ±0.15 pN. In this mode, data is recorded from 4-40 kHz to capture the fast intermediates. The plots are shown as extension vs. time (as in FIG. 6A). In force-jump (FJ) assay, the force is suddenly jumped from one force to another, and then held constant thereafter, as shown in FIGS. 23A-B.
All FR, CF and FJ experiments were carried out at an ambient temperature, 25±0.5° C. The buffer in the microfluidics contained 10 mM Tris-HCl, pH 7.5 at 25° C., 250 mM NaCl, 3 mM MgCl2, and purine concentrations as indicated in wild-type aptamer. Unless stated otherwise, Mg^2+ concentration in the buffer was maintained at 3 mM in all experiments. The buffer in mutant m1 contained 5 mm Mg^2+ and 1 μM G, and in m3 contained 5 mM Mg^2+ and 200 nM Guanine. For the remaining m2, m4, m5 and m6 mutants, the buffer in single-molecule experiments was supplemented only with 3 mM Mg^2+ and 200 nM Guanine.
In the force-ramp experiment, the trap was moved away (pull cycle) from the micropipette at 200 nm/sec, which corresponded to a loading rate of 7-8 pN/sec. This movement of the trap exerted a tension at the ends of the tethered RNA aptamer. […] In the constant-force (CF) experiment, the RNA was held at a preset force (FIG. 6A). The loading rate in CF experiments was zero. The preset force typically fluctuated around the mean with standard deviation ±0.15 pN. […]

The mark [3] stands for this setting: transition C′A (merged C′B and BA), F 6.1 pN, 5 mM Mg^2+.
[4] abbreviates: transition BA (P1 folding), F 8.5 pN, 3 mM Mg^2+.
Setting [5] is: transition C′B (L2-L3 folding), F 8.5 pN, 3 mM Mg^2+.
[6] abbreviates: transition DC (P3 folding), F 12.0 pN, 3 mM Mg^2+.
Where [7] appears, read: transition ED (P2 folding), F 13.5 pN, 3 mM Mg^2+.
The mark [8] stands for this setting: transition C′A (merged C′B and BA), F 6.1 pN, 3 mM Mg^2+.

Where “and” joins values, the source holds several entries; their conditions need not be identical. Equal values may be shown once.

B1: m3: m3 mutant guanine sensing aptamer RNA (SEQ ID NO: 4); G38 replaced with adenine in the L2 loop (nucleic acid)
chain: CACUCAUAUAAUCGCGUGGAUAUGACACGCAAGUUUCUACCGGGCACCGUAAAUGUCCGACUAUGGGUG
modifications: RNA, backbone and methylation of C not given here
notes: G38 replaced with adenine in the L2 loop
Take B1: the “KD off relative to wild-type” value in data set [1] was approximately 18 fold. Besides, the “lac Z expression / transcriptional control (in words)” value in the data set with lac Z expression was “completely de-repressed”. Moreover, in data set [2] (transition C′A (merged C′B and BA), 5 mM Mg^2+, 200 nM G (rates at 6.1 pN)), the “Equilibrium force F^eq” value was 6 pN and 6.1 ± 0.02 pN. Besides, in data set [2] (setting [3]), the Folding rate kf amounted to 0.8 ± 0.05 s⁻¹, the “Transition distance ΔX” value came out at 12.5 ± 0.4 nm and the Unfolding rate ku was 0.69 ± 0.05 s⁻¹. Also, the “ΔG (0)” value in data set [2] (transition C′A (merged C′B and BA), from data at 6.1 pN, 5 mM Mg^2+) is recorded as −12.7 ± 0.6 kBT.

B2: m8: m8 mutant guanine sensing aptamer RNA (SEQ ID NO: 9); A19G and U77C in the P1 hairpin (nucleic acid)
chain: CACUCGUAUAAUCGCGUGGAUAUGGCACGCAAGUUUCUACCGGGCACCGUAAAUGUCCGACUACGGGUG
modifications: RNA, backbone and methylation of C not given here
notes: A19G and U77C in the P1 hairpin
With B2, the “lac Z expression / transcriptional control (in words)” value with lac Z expression is given as “stringent control”. The “Equilibrium force F^eq” value was found to be 8.8 ± 0.2 pN in data set [2] (transition BA (P1 folding), 3 mM Mg^2+, 200 nM G (rates at 8.5 pN)); 8.4 ± 0.3 pN in data set [2] (transition C′B (L2-L3 folding), 3 mM Mg^2+, 200 nM G (rates at 8.5 pN)); 11.8 ± 0.1 pN in data set [2] (transition DC (P3 folding), 3 mM Mg^2+, 200 nM G (rates at 12.0 pN)); 13.5 ± 0.03 pN in data set [2] (transition ED (P2 folding), 3 mM Mg^2+, 200 nM G (rates at 13.5 pN)). The Folding rate kf in data set [2] (setting [4]) stood at 0.4 ± 0.05 s⁻¹; in data set [2] (setting [5]) it was 1.4 ± 0.2 s⁻¹; in data set [2] (setting [6]), 15.9 ± 0.4 s⁻¹; in data set [2] (setting [7]), 10.5 ± 0.4 s⁻¹. The Unfolding rate ku came out at 0.2 ± 0.05 s⁻¹ in data set [2] (setting [4]), 1.5 ± 0.2 s⁻¹ in data set [2] (setting [5]), 17.5 ± 0.5 s⁻¹ in data set [2] (setting [6]) and 13.2 ± 0.5 s⁻¹ in data set [2] (setting [7]). Besides, the “Transition distance ΔX” value in data set [2] (transition BA (P1 folding), F 8.5 pN, 3 mM Mg^2+, no helix width adjustment) worked out at 9.5 ± 0.3 nm; in data set [2] (setting [5]), 3.6 ± 0.2 nm; in data set [2] (setting [6]) it was 7.7 ± 0.2 nm; in data set [2] (setting [7]), 7.0 ± 0.2 nm. For the same molecule, the “ΔG (0)” value in data set [2] (transition BA (P1 folding), from data at 8.5 pN, 3 mM Mg^2+) is −14.3 kBT and −14.3 ± 0.7 kBT; in data set [2] (transition C′B (L2-L3 folding), from data at 8.5 pN, 3 mM Mg^2+), −7.4 ± 0.5 kBT; in data set [2] (transition DC (P3 folding), from data at 12.0 pN, 3 mM Mg^2+), −15.5 ± 0.6 kBT; in data set [2] (transition ED (P2 folding), from data at 13.5 pN, 3 mM Mg^2+), −16.0 ± 0.7 kBT.

B3: m2: m2 mutant guanine sensing aptamer RNA (SEQ ID NO: 3); G37A in L2 and C61U in L3 (nucleic acid)
chain: CACUCAUAUAAUCGCGUGGAUAUAGCACGCAAGUUUCUACCGGGCACUGUAAAUGUCCGACUAUGGGUG
modifications: RNA, backbone and methylation of C not given here
notes: G37A in L2 and C61U in L3
As usually defined, the Kd is a measure of binding affinity in units of concentration. Take B3: the “KD off relative to wild-type” value in data set [1] is reported as approximately 9 fold. For the same molecule, the Kd in data set [1] (30° C., 50 mM K^+ Hepes pH 7.5, 100 mM KCl, 10 mM MgCl2, read-out: KD for guanine) turned out to be 36 ± 0.2 nM. In addition, the “lac Z expression / transcriptional control (in words)” value in the data set with lac Z expression was “completely de-repressed”. The “Equilibrium force F^eq” value in data set [2] (transition C′A (merged C′B and BA), 3 mM Mg^2+, 200 nM G (rates at 6.1 pN)) was 6 pN and 6.0 ± 0.03 pN. Besides, in data set [2] (setting [8]), the Folding rate kf stood at 0.53 ± 0.06 s⁻¹, the “Transition distance ΔX” value came out at 12.4 ± 0.4 nm and the Unfolding rate ku worked out at 0.8 ± 0.11 s⁻¹. Also, the “ΔG (0)” value in data set [2] (transition C′A (merged C′B and BA), from data at 6.1 pN, 3 mM Mg^2+) is on record as −11.9 ± 0.6 kBT.
